Assay results published in patent US20180036395A1, “DOSAGE AND ADMINISTRATION OF MONOSPECIFIC AND BISPECIFIC ANTI-IGR-1R AND ANTI-ERBB3 ANTIBODIES” (Merrimack Pharmaceuticals, Inc., priority 2012, published 2018).

What was measured:
[1] = test system: DU145 prostate cancer cells; assay: DU145 prostate cancer xenograft study; format: in vivo, human; conditions: combination of docetaxel (10mpk q7d) and P4-G1-M1.3 (30mpk, q3d); FIG. 4
Description: The y-axis represents mean tumor volume in mm^3 and the x-axis represents time in days.
For each of the xenograft studies below, cells are resuspended 1:1 with PBS:Growth factor-reduced Matrigel® and injected subcutaneously into Nu/Nu mice. Tumors are allowed to develop for 8 days. Antibodies are injected intraperitoneally every 3 days (q3d) at the indicated doses/mouse. Tumor lengths and widths are measured twice a week manually by caliper, and tumor volume calculated using the following formula: π/6(L×W^2). Each arm of a study contains 10 animals. All studies are carried out using methods approved by an internal IACUC panel.
Statistical significance across groups was determined using the student's T-test (*,p<0.05 vs control.; #,p<0.05 vs docetaxel; a,p<0.05 vs P4-G1-M1.3).

[2] = test system: non-small cell lung cancer (NSCLC); assay: Treatment of patients with non-small cell lung cancer; format: in vivo, human; conditions: everolimus + P4-G1-M1.3
Description: (§1) P4-G1-M1.3 is formulated in 20 mM histidine, 100 mM arginine-HCl, 3% sucrose, at pH 5.5 supplemented with 0.002-0.02% of Tween® 80 at concentration range 5-15 mg/mL. P4-G1-M1.3 is administered to patients at 6 mg/kg, 12 mg/kg, 20 mg/kg, 30 mg/kg, 40 mg/kg, 50 mg/kg or 60 mg/kg q7d, ql4d, q21d, or q28d with a loading dose of 12 mg/kg, 20 mg/kg, 40 mg/kg, 40 mg/kg or 60 mg/kg Everolimus is administered to patients at 2.5 mg, 5 mg, or 10 mg orally once a day or once every other day.
(§2) Patients with non-small cell lung cancer (NSCLC) are treated by administration of either monotherapy with an effective amount of everolimus or an effective amount of P4-G1-M1.3, or with combination therapy comprising or consisting of administration of both the effective amount of everolimus and the effective amount of P4-G1-M1.3. P4-G1-M1.3 and everolimus are prepared and dosed as described in Example 1.

[3] = test system: melanoma; assay: Treatment of patients with melanoma; format: in vivo, human; conditions: vemurafenib or dabrafenib + P4-G1-M1.3
Description: as §1
Patients with melanoma are treated by administration of either monotherapy with an effective amount of vemurafenib (Zelboraf®) or an effective amount of P4-G1-M1.3, or with combination therapy comprising or consisting of administration of both the effective amount of vemurafenib or dabrafenib and the effective amount of P4-G1-M1.3. P4-G1-M1.3 is formulated and administered as described above in Example 1. Vemurafenib is given orally at 960 mg 1-2 times daily. Dabrafenib is administered as administered in dabrafenib phase III clinical trials.

[4] = test system: BxPC-3 tumors; assay: BxPC-3 xenograft pharmacodynamic (PD) study, western blotting of tumor lysates; format: in vivo, human; conditions: BxPC-3 PD study tumors
Description: BxPC-3 mouse xenograft models are established using 5×10^6 BxPC-3 cells that are resuspended 1:1 with PBS:Growth factor-reduced Matrigel® and injected subcutaneously into Nu/Nu mice. Tumors are allowed to develop for 8 days. Antibodies are injected intraperitoneally every 3 days (q3d) for 2 rounds of dosing.
For the BxPC-3 PD study, 4 treatment groups are established, each containing 4 mice. These included control, P4-G1-M1.3 (q3d, 600 μg), gemcitabine (q3d, 150 mg/kg) and P4-G1-M1.3+gemcitabine (combined individual doses). Tumors are excised on either day 19 or day 28, resulting in a total of 8 groups.
Tumors are initially weighed and pulverized in a CryoPrep® tissue pulverizer (Covaris). Tissue Extraction Reagent 1 (TER1, Life Technologies™) containing protease and phosphatase inhibitors was added to the tumor at a ratio of lml TER1 per 100 mg of tissue. Samples are incubated on ice for 30 minutes to solubilize tissue and put through a QIAshredder™ column (Qiagen) according to the manufacturer's protocol. A BCA assay (Pierce) is performed to determine protein concentration according to the manufacturer's protocol.
Buffer containing β-Mercaptoethanol (β-ME) is added and lysates are boiled for 5 minutes at 95° C. Approximately 40 μg of protein and two ladders (Invitrogen) are run on each well of an 18-well gel (BioRad). Gels are run at 150 volts constant for approximately 90 minutes and transferred to nitrocellulose membranes using the 8 minute transfer program of the iBlot® (Invitrogen) transfer system. Membranes are blocked in Odyssey® Blocking Buffer (Licor® Biosciences) for 1 hour at room temperature, and then incubated with primary antibodies overnight at 4° C. in 5% BSA in TBS-T. All antibodies are purchased from Cell Signaling and used at the recommended dilution. The following day membranes are washed 3×5 minutes each with TBS-T and then incubated with anti-Rabbit IgG—DyLight® 800 (Cell Signaling) or anti-Rabbit IRDye® 800 (Licor® Biosciences) at 1:10,000-15,000 in 5% milk in TBS-T for 1 hour at room temperature. Membranes were then washed 3×5 minutes each with TBS-T and scanned using the Licor® Odyssey® system (Licor® Biosciences). Intensities are quantified using Image Studio 2.0 and normalized to β-Actin levels.
Using BxPC-3 xenografts, mice with control tumors were compared to those treated with monotherapy with P4-G1-M1.3, monotherapy with gemcitabine or combination therapy with P4-G1-M1.3 and gemcitabine.

[5] = test system: gastrointestinal neuroendocrine tumors; assay: Treatment of patients with gastrointestinal neuroendocrine tumors; format: in vivo, human
Description: as §1
as §2, with “gastrointestinal neuroendocrine tumors” for “non-small cell lung cancer (NSCLC)”
Patients with gastrointestinal neuroendocrine tumors are treated by administration of either monotherapy with an effective amount of mTOR inhibitor temsirolimus (Torisel®) or an effective amount of P4-G1-M1.3, or with combination therapy comprising or consisting of administration of both the effective amount of temsirolimus and the effective amount of P4-G1-M1.3. P4-G1-M1.3 is prepared and dosed as described in Example 1. Temsirolimus is dosed at 2.5 mg, 7.5 mg, 15 mg, or 25 mg (25 mg is the manufacturer's recommended dose) infused over a 30-60 minute period once a week.
Patients with gastrointestinal neuroendocrine tumors are treated by administration of either monotherapy with an effective amount of mTOR inhibitor sirolimus (Rapamune®) or an effective amount of P4-G1-M1.3, or with combination therapy comprising or consisting of administration of both the effective amount of sirolimus and the effective amount of P4-G1-M1.3. P4-G1-M1.3 is prepared and dosed as described in Example 1.

[6] = test system: hepatocellular carcinoma (HCC); assay: Treatment of patients with hepatocellular carcinoma; format: in vivo, human
Description: as §1
Patients with hepatocellular carcinoma (HCC) are treated with P4-G1-M1.3 monotherapy. Patients are dosed with P4-G1-M1.3 as described in Example 1 (second line in patients refractory to sorafenib). […] Preclinical data to support this example may be obtained using HepG2 cells in vitro and in vivo.
Patients with hepatocellular carcinoma (HCC) are treated with a combination of an effective amount of sorafenib and an effective amount of P4-G1-M1.3. Patients are dosed with P4-G1-M1.3 as described in Example 1. Patients are dosed with sorafenib at 400 mg daily. […] Preclinical data to support this example may be obtained using HepG2 cells in vitro and in vivo.

[7] = test system: KP4 cells; assay: In vitro signaling ELISA, KRAS mutant cells; format: cell-based, human; conditions: combination 500 nM P4-G1-M1.3 + 250 nM GSK1120212, 24 hours, 10% serum, FIG. 3
Description: Cells were treated with 500 nM P4-G1-M1.3, 250 nM GSK1120212 or the combination for 24 hours in 10% serum and ELISA assays were performed. The data was normalized to 10% serum without treatment.
The preclinical models to support this example are performed using BxPC-3 (KRAS wild-type) and KP4 (KRAS mutant) cell lines.

B1: P4-G1-M1.3: anti-IGF-1R+anti-ErbB3 polyvalent bispecific antibody, IgG1-(scFv)2 (SEQ ID NO:148 and SEQ ID NO:149) (protein)
chain 1: EVQLLQSGGGLVQPGGSLRLSCAASGFLFSSYPMHWVRQAPGKGLEWVGSISPSGGATPYADSVKGRFTISRDNSKNTLYLQMNSLRPEDTAVYYCAKDFYNILTGNAFDKWGQGTSVTVSSASTGGGGSGGGGSGGGGSGGGGSDIQLTQSPSSLSASLGDRVTITCRASQGISSYLAWYQQKPGKAPKLLIYAGSTPQSGVPSRFSGSGSGTEFTLTISSLQPEDSGTYYCQQYWTWPLTFGGGTKVEIKRT
chain 2: EVQLVESGGGLVQPGRSLRLSCAASGFTFDDYAMHWVRQAPGKGLEWVSGISWNSGSTGYADSVKGRFTISRDNAKNSLYLQMNSLRAEDTALYYCARDLGYNQWLEGFDYWGQGTLVTVSSASTGGGGSGGGGSGGGGSGGGGSSSELTQDPAVSVALGQTVRITCQGDSLRSYYASWYQQKPGQAPVLVIYGKNNRPSGIPDRFSGSSSGNTASLTITGAQAEDEADYYCMSRDHPGNQWVFGGGTKVTVLG
modifications: Synthetic polypeptide:Anti-IGF-1R scFvs M76; Synthetic polypeptide:Anti-ErbB3 scFvs P6L
growth of DU145 prostate cancer cells in vivo (mean tumor volume) [1]: inhibition of growth
treatment outcome [2]: combinatorially enhanced outcome
treatment outcome [3]: combinatorially enhanced outcome
ERK phosphorylation ([4]; FIG. 2H): inhibits ERK phosphorylation
apoptosis-inducing activity of gemcitabine (survivin) ([4]; P4-G1-M1.3 600 μg + gemcitabine 150 mg/kg q3d, FIG. 2H): potentiates apoptosis-inducing activity of gemcitabine
level of receptor complexes (IGF-1R, Insulin Receptor, EGFR, ErbB3, ErbB2) ([4]; P4-G1-M1.3 q3d 600 μg, FIG. 2A-2C): downregulates receptor complexes
PI3K/AKT/mTOR signaling (phospho-AKT, phospho-FoxO, phospho-PDK1, phospho-mTOR, phospho-S6, pRAS40, p4EB-PB1) ([4]; P4-G1-M1.3 q3d 600 μg, FIG. 2D-2G, 2I, 2J): inhibits PI3K/AKT/mTOR signaling
treatment outcome ([5]; everolimus + P4-G1-M1.3): combinatorially enhanced outcome
treatment outcome ([5]; sirolimus + P4-G1-M1.3): combinatorially enhanced outcome
treatment outcome ([5]; temsirolimus + P4-G1-M1.3): combinatorially enhanced outcome
HCC symptoms (e.g., time to progression or progression-free survival) ([6]; P4-G1-M1.3 monotherapy, second line in patients refractory to sorafenib, vs untreated historical controls or best supportive care): statistically significant improvement in HCC symptoms
treatment outcome ([6]; patients with HCC, sorafenib 400 mg daily + P4-G1-M1.3): combinatorially enhanced outcome
signaling (pAkt Ser473, pERK) [7]: inhibition of signaling
